Patent publication US9289478B2, “Formulations of tumour-associated peptides binding to human leukocyte antigen (HLA) class I or class II molecules for vaccine” (IMMATICS BIOTECHNOLOGIES GMBH, priority 2008, dated 2016)
Ends that are not written are not given here.

Legend:
Assay type in all cases: physicochemical
[1] = HPLC-assay for in-use stability after reconstitution with 4.2% sodium hydrogen carbonate solution (Example 2, peptides SEQ ID NO 1-10)
Experimental: Resolubilization procedure: For clinical trials the above described formulation is dissolved in 700 μl sodium hydrogen carbonate (4.2%). Remove plastic cap from one vial. Unpack and remove sodium hydrogen carbonate (4.2%) from the refrigerator at least 30 min before resolubilization to bring them up to room temperature before injection. Prepare syringe and needle for reconstitution. Use aseptic technique to take 700 μL of diluent for reconstitution of the lyophilisate. To dissolve the lyophilisate, the vial and the diluent shall be shaken vigorously for 1 minute, check whether solution is clear, otherwise continue shaking for another minute until the solution is clear. 10 to 30 minutes after GM-CSF injection, use a new syringe to administer 500 μL reconstituted formulation i.d. at the same site. Administration has to occur within 1 h after reconstitution. Dissolved lyophilisate may be stored aseptically at room temperature for up to 1 hour following reconstitution.
However, a decrease of two specific peptides, i.e. IMA-CCN-001 and IMA-RGS-001 took place (see Table 6). As these peptides contain a cysteine residue, time-depending dimerization takes place.
(§1) Identity, purity and peptide content are determined by analytical RP-HPLC chromatography. Detection wavelength was 220 nm.

[2] = Stability of renal cell cancer vaccine test formulations at +25° C. and +40° C. by analytical HPLC assay; details: especially at +40° C.
Experimental: Various lyophilisates were tested with respect to stability of each individual peptide at +25° C. and […] using an analytical HPLC assay.
The peptides according to the SEQ ID NOs: 1 to 10 were lyophilised without any excipients and by addition of mannitol and Poloxamer 188 (LUTROL F68®) or TWEEN 80®.
The following test formulations were produced and stability were assessed at +25° C. and +40° C. by analytical HPLC assay:
Initial HPLC measurements have been performed for each formulation before storage in a climate chamber. For this purpose, the content of two vials was completely dissolved in 30% acetic acid and measured by RP-HPLC by repeat determination. To assure comparability between the individual measurements, β-Naphtyl-alanine was used as internal standard and lyophilized together with the peptides.
After 7, 14, 21, and 28 days, another two vials were removed from the climate chamber to assess stability.
Data assessment was performed by repeat determination of one vial. For one time point and temperature, two independent vials were used to obtain four data points in total. These values have been taken to calculate the standard deviation shown as error bars in the relevant diagram.

[3] = HPLC-assay for stability of peptides in lyophilised formulation on storage for 3 months (Example 4); details: for stability of peptides in formulation, 1 M: 1 month; for stability of peptides in formulation, 2 M: 2 months; for stability of peptides in formulation, 3 M: 3 months
Experimental: as §1

[4] = HPLC-assay for in-use stability after reconstitution with 4.2% sodium hydrogen carbonate solution (Example 3, peptides SEQ ID NO 11-23)
Experimental: For clinical trials the above described formulation is dissolved in 700 μl sodium hydrogen carbonate (4.2%). To dissolve the lyophilisate, the vial and the diluent shall be shaken vigorously for 1 minute, check whether solution is clear, otherwise continue shaking for another minute until the solution is clear. Administration of 500 μL of the solution has to occur within 1 h after reconstitution. Dissolved lyophilisate may be stored aseptically at room temperature for up to 1 hour following reconstitution.
as §1

[5] = Solubility of peptide in 90% acetic acid and in water
Description: Advantageously, the formulation according to the invention is suitable for stable formulations containing very hydrophobic peptides (for example IMA-CHI-001; SEQ ID NO: 23).

[6] = +mannitol/lutrol, 1 h after reconstitution
[7] = +mannitol/lutrol, 2 h after reconstitution
[8] = +mannitol/lutrol, 3 h after reconstitution
[9] = +mannitol/lutrol, 4 h after reconstitution
[10] = +mannitol/lutrol, 5 h after reconstitution
[11] = +mannitol/lutrol, 6 h after reconstitution
[12] = +mannitol/lutrol, Initial (starting value set to 100%)
[13] = no excipients, 1 h after reconstitution
[14] = no excipients, 2 h after reconstitution
[15] = no excipients, 3 h after reconstitution
[16] = no excipients, Initial (starting value set to 100%)

| Sequence | stability of peptides in formulation, 1 M ([3]; +5° C. +/- 3° C.) | stability of peptides in formulation, 2 M ([3]; +5° C. +/- 3° C.) | stability of peptides in formulation, 3 M ([3]; +5° C. +/- 3° C.) | stability of peptides in formulation, INITIAL ([3]; +5° C. +/- 3° C.) [%] | stability of peptides in formulation, 1 M ([3]; +25° C. +/- 2° C.) | stability of peptides in formulation, 2 M ([3]; +25° C. +/- 2° C.) | stability of peptides in formulation, 3 M ([3]; +25° C. +/- 2° C.) | stability of peptides in formulation, INITIAL ([3]; +25° C. +/- 2° C.) [%] | stability of peptides in formulation, 1 M ([3]; -20° C. +/- 5° C.) | stability of peptides in formulation, 2 M ([3]; -20° C. +/- 5° C.) | stability of peptides in formulation, 3 M ([3]; -20° C. +/- 5° C.) | stability of peptides in formulation, INITIAL ([3]; -20° C. +/- 5° C.) [%] | in-use stability, Peptide [%] ([4]; +Mannitol/Lutrol, 2h) | in-use stability, Peptide [%] ([4]; +Mannitol/Lutrol, 4h) | in-use stability, Peptide [%] ([4]; +Mannitol/Lutrol, 6h) | in-use stability, Peptide [%] ([4]; +Mannitol/Lutrol, Initial) | in-use stability, Peptide [%] ([4]; no excipients, 2h) | in-use stability, Peptide [%] ([4]; no excipients, 4h) | in-use stability, Peptide [%] ([4]; no excipients, 6h) | in-use stability, Peptide [%] ([4]; no excipients, Initial) | other results |
| --- | --- | --- | --- | --- | --- | --- | --- | --- | --- | --- | --- | --- | --- | --- | --- | --- | --- | --- | --- | --- | --- |
| LAALPHSCL (listed as Homo sapiens) [RGS-001, RGS-5 tumour-associated peptide] |  |  |  |  |  |  |  |  |  |  |  |  |  |  |  |  |  |  |  |  | in-use stability, peptide by HPLC-assay [1, 6]: 97.9%; in-use stability, peptide by HPLC-assay [1, 7]: 95.5%; in-use stability, peptide by HPLC-assay [1, 8]: 94.2%; in-use stability, peptide by HPLC-assay [1, 9]: 91.6%; in-use stability, peptide by HPLC-assay [1, 10]: 88.0%; in-use stability, peptide by HPLC-assay [1, 11]: 86.8%; in-use stability, peptide by HPLC-assay [1, 12]: 100.0%; stability after reconstitution (in words) ([1]; Example 2 formulation, 4.2% sodium hydrogen carbonate): decrease; in-use stability, peptide by HPLC-assay [1, 13]: 90.9%; in-use stability, peptide by HPLC-assay [1, 14]: 77.8%; in-use stability, peptide by HPLC-assay [1, 15]: 64.6%; in-use stability, peptide by HPLC-assay [1, 16]: 100.0%; peptide signal in formulations containing TWEEN 80 [2]: enhanced degradation |
| TLGEFLKLDRERAKN (listed as Homo sapiens) [BIR-002, Baculoviral IAP repeat-containing 5 (survivin) peptide] | 98.53 % of Initial | 97.28 % of Initial | 100.01 % of Initial | 100.0 | 97.49 % of Initial | 96.24 % of Initial | 98.93 % of Initial | 100.0 | 98.43 % of Initial | 96.98 % of Initial | 100.14 % of Initial | 100.0 | 100.8 | 101.2 | 100.9 | 100.0 | 100.6 | 101.4 | 96.2 | 100.0 |  |
| NLDTLMTYV (listed as Homo sapiens) [NLGN4X-001, Neuroligin 4, X-linked peptide] | 99.12 % of Initial | 98.24 % of Initial | 98.84 % of Initial | 100.0 | 97.90 % of Initial | 96.30 % of Initial | 96.41 % of Initial | 100.0 | 99.05 % of Initial | 97.60 % of Initial | 98.62 % of Initial | 100.0 | 100.8 | 100.9 | 100.5 | 100.0 | 99.9 | 100.5 | 95.7 | 100.0 |  |
| SVASTITGV (listed as Homo sapiens) [ADF-001, Adipophilin tumour-associated peptide] |  |  |  |  |  |  |  |  |  |  |  |  |  |  |  |  |  |  |  |  | in-use stability, peptide by HPLC-assay [1, 6]: 99.6%; in-use stability, peptide by HPLC-assay [1, 7]: 99.6%; in-use stability, peptide by HPLC-assay [1, 8]: 100.7%; in-use stability, peptide by HPLC-assay [1, 9]: 100.8%; in-use stability, peptide by HPLC-assay [1, 10]: 99.9%; in-use stability, peptide by HPLC-assay [1, 11]: 101.8%; in-use stability, peptide by HPLC-assay [1, 12]: 100.0%; in-use stability, peptide by HPLC-assay [1, 13]: 102.4%; in-use stability, peptide by HPLC-assay [1, 14]: 102.4%; in-use stability, peptide by HPLC-assay [1, 15]: 100.0%; in-use stability, peptide by HPLC-assay [1, 16]: 100.0%; peptide signal in formulations containing TWEEN 80 [2]: increase of the signal |
| AMTQLLAGV (listed as Homo sapiens) [TNC-001, Tenascin C peptide] | 99.02 % of Initial | 98.10 % of Initial | 98.72 % of Initial | 100.0 | 97.86 % of Initial | 96.80 % of Initial | 97.21 % of Initial | 100.0 | 99.01 % of Initial | 97.61 % of Initial | 98.57 % of Initial | 100.0 | 100.5 | 100.6 | 100.2 | 100.0 | 100.0 | 100.4 | 95.7 | 100.0 |  |
| SLWAGVVVL [CHI-001] |  |  |  |  |  |  |  |  |  |  |  |  | 100.0 |  | 100.2 | 100.0 | 102.2 |  | 90.6 | 100.0 | solubility ([5]; 90% acetic acid): ~2900 µg/mL; solubility in water ([5]; water): very insoluble |
